Data published in PMC12676778, “Long-tailed class I myosins rely on tail-mediated phosphoinositide recognition for specific membrane recruitment” (Cell Communication and Signaling : CCS, 2025).

Experiments:
microtubules [1] = target: microtubules (UniProt P02550)
microtubules [2] = target: microtubules (UniProt P02550); remark: listed apart in the source
F-actin = F-actin (UniProt P68135); assay: co-sedimentation; YFP fluorescence of pellet and supernatant; increasing F-actin concentrations; 5 mM Tris pH 7.4, 100 mM KCl, 0.04% NaN3, 2 mM MgCl2; 20,000 g, 30 min, 4 °C

microtubules, sequence (P02550 whole entry, chain 1 of 2): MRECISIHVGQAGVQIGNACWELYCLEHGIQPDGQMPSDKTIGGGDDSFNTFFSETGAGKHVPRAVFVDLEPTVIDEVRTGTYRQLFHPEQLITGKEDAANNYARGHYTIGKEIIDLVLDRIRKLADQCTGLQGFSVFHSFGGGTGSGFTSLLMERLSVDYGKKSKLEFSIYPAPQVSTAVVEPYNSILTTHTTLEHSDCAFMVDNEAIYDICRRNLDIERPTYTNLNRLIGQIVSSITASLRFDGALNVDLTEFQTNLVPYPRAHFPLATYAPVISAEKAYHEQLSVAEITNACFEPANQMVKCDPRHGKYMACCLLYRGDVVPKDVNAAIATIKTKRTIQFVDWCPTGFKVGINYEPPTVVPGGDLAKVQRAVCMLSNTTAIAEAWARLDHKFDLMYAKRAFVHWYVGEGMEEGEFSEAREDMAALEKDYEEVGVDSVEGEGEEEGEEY
microtubules, sequence (P02554 whole entry, chain 2 of 2, further chain): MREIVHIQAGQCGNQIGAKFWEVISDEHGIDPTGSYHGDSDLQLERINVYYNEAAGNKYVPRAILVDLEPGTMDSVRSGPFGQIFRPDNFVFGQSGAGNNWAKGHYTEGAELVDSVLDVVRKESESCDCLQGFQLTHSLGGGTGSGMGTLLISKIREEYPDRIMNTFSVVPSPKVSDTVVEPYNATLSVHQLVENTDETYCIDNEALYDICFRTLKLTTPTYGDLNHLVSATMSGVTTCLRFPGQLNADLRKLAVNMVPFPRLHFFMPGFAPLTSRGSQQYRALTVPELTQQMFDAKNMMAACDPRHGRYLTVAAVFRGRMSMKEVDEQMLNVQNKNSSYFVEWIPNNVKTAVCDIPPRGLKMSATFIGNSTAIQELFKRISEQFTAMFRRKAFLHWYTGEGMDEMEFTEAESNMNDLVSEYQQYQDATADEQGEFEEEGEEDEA

cold-induced depolymerization assays of microtubules, IC50 (microtubules [1]): 20 nM | inhibition of the cold-induced depolymerization of microtubules, IC50 (microtubules [2]): 15 nM | Kd (F-actin): 12000 nM
Substance: myosin-1D tail (amino acids 717–1113) (domain or fragment)
